Patent US20090028788A1 (WASHINGTON UNIVERSITY IN ST LOUIS, published 2009)
Each block holds one molecule with its values, some of them ahead of it. [ ]: non-standard residue; d: D form. The star is where a group is joined. Cypate = CC1(C)C(/C=C/C=C/C=C/C=C2/N(CCC(=O)*)c3ccc4ccccc4c3C2(C)C)=[N+](CCC(=O)O)c2ccc3ccccc3c21

Assays:
[1] = target: T1, purified human αvβ3 integrin protein (human, UniProt P06756 31-1048; P05106 27-788); experiment: competition with 125I-echistatin on purified human αvβ3 integrin, filter plate
T1 construct: Bought heterodimer; also called ABI; purified αvβ3 integrin

[2] = target: T1, purified human αvβ3 integrin protein; experiment: competition with 125I-echistatin on purified αvβ3 integrin, filtration plate (Example 3)
[3] = target: T1, purified human αvβ3 integrin protein; experiment: competition with 125I-echistatin on purified human αvβ3 integrin, filter plate; remark: listed apart in the source
[4] = target: T1, purified human αvβ3 integrin protein; experiment: as above; remark: listed apart in the source

IC50 [1]: 4.67 µM
Molecule: Cypate(Octreotate)1-(Arg-Gly-Asp-NH2)1 (peptide)

IC50 [1]: 0.328 µM
B1: Cypate-Lys-Arg-Gly-Asp-DPhe-Asp-DPhe-EAhx-NH2 (peptide)
peptide: KRGDXDXX
HELM: PEPTIDE1{[CC1(C)C(/C=C/C=C/C=C/C=C2/N(CCC(=O)[*:2])c3ccc4ccccc4c3C2(C)C)=[N+](CCC(=O)O)c2ccc3ccccc3c21].K.R.G.D.[dF].D.[dF].[O=C(CCCCCN[*:1])[*:2]].[am]}$$$$V2.0
SMILES: CC1(C)C(/C=C/C=C/C=C/C=C2/N(CCC(=O)N[C@@H](CCCCN)C(=O)N[C@@H](CCCNC(=N)N)C(=O)NCC(=O)N[C@@H](CC(=O)O)C(=O)N[C@H](Cc3ccccc3)C(=O)N[C@@H](CC(=O)O)C(=O)N[C@H](Cc3ccccc3)C(=O)NCCCCCC(N)=O)c3ccc4ccccc4c3C2(C)C)=[N+](CCC(=O)O)c2ccc3ccccc3c21

IC50 [2]: 79.1 µM
IC50 [3]: 79.5 µM
IC50 [4]: 79.5 µM
B2: Cyclo(Lys(Cypate)-Arg-Gly-Asp-DPhe-Val) (peptide)
peptide: cyclo(K(Cypate)RGD[dF]V)
SMILES: CC(C)[C@@H]1NC(=O)[C@@H](Cc2ccccc2)NC(=O)[C@H](CC(=O)O)NC(=O)CNC(=O)[C@H](CCCNC(=N)N)NC(=O)[C@H](CCCCNC(=O)CCN2/C(=C/C=C/C=C/C=C/C3=[N+](CCC(=O)O)c4ccc5ccccc5c4C3(C)C)C(C)(C)c3c2ccc2ccccc32)NC1=O
notes: also called Cyclo(K^(Cypate)RGDfV); cyclo-[K^(Cypate)RGDfV]
